From PMC11103505, “AXL-specific single domain antibodies show diagnostic potential and anti-tumor activity in Acute Myeloid Leukemia” (Theranostics, 2024)
Positions count from the first letter of the chain named.

B1: recombinant mouse AXL protein (receptor, UniProt Q00993 19-445, looked up)
chain: AHKDTQTEAGSPFVGNPGNITGARGLTGTLRCELQVQGEPPEVVWLRDGQILELADNTQTQVPLGEDWQDEWKVVSQLRISALQLSDAGEYQCMVHLEGRTFVSQPGFVGLEGLPYFLEEPEDKAVPANTPFNLSCQAQGPPEPVTLLWLQDAVPLAPVTGHSSQHSLQTPGLNKTSSFSCEAHNAKGVTTSRTATITVLPQRPHHLHVVSRQPTELEVAWTPGLSGIYPLTHCNLQAVLSDDGVGIWLGKSDPPEDPLTLQVSVPPHQLRLEKLLPHTPYHIRISCSSSQGPSPWTHWLPVETTEGVPLGPPENVSAMRNGSQVLVRWQEPRVPLQGTLLGYRLAYRGQDTPEVLMDIGLTREVTLELRGDRPVANLTVSVTAYTSAGDGPWSLPVPLEPWRPGQGQPLHHLVSEPPPRAFSWPWW
notes: AXL receptor tyrosine kinase, mouse; recombinant protein R&D Systems #854-AX; also called mouse Axl antigen; recombinant mouse antigen; source: bought: R&D Systems (#854-AX)
B2: anti-AXL single domain antibody sdAb25 (VHH)
VHH: QVQLQESGGGLVQPGGSLRLSCVASGSIFSIYAMGWYRQAPGKQRELVAGISSGGSTNYADSVKGRFTISRDNAKNTVYLQMNSLKPEDTAVYYCNYDLVEAVTGEYDYWGQGTQVTVSS
notes: source: E. coli WK6, periplasmic expression, purified (IMAC, SEC)
B3: anti-AXL single domain antibody sdAb12 (VHH)
VHH: B2 VHH with Q13K
notes: as for B2
B4: anti-AXL single domain antibody sdAb4 (VHH)
VHH: B2 VHH with E101K
notes: as for B2
B5: anti-AXL single domain antibody sdAb19 (VHH)
VHH: QVQLQESGGGMVQPGGSLRLSCAASGFTFTSYDMTWLRQTPGKGPEWVSTISTGGLRTYYGNSVKGRFIISRDNTKNTLYLQMNSLKPEDTALYYCARGPFTVADPRRGQGTQVTVSS
notes: as for B2
B6: anti-AXL single domain antibody sdAb20 (VHH)
VHH: B5 VHH with M11L, Q13R
notes: re-cloned into pHEN6 (C-terminal His6 tag), monomeric format; source: E. coli WK6, periplasmic expression, purified (IMAC, SEC)
B7: anti-AXL single domain antibody sdAb20 (VHH)
VHH: B5 VHH with M11L, Q13R
notes: alpaca-derived; Re-cloned into pHEN6, which encodes the C-terminal His6 tag; also called lead compound; monovalent sdAb20; source: E. coli WK6, periplasmic expression, purified (IMAC, SEC); not shown: His6, C-terminal, kept

What was measured:
[1] = molecular target: T1, [111In]In-DTPA-sdAb20-Fc (alpaca (Vicugna pacos)); test: ELISA; radio-ELISA: recombinant mouse AXL coated on Lockwell C8 Maxisorp plates; serial dilution of [111In]In-DTPA-sdAb-Fc in PBS + 1% FBS; bound radioactivity by gamma counter; specific binding = total minus non-specific binding; settings: both partners purified
T1 construct: as the VHH of Dm1; the His6 tag of sdAb20 was replaced with the mIgG2a-Fc region; about 80 kDa; also called [111In] anti-AXL sdAb20-Fc; 111In-labeled sdAb20-Fc; source: DTPA-conjugated and 111In-labelled, purified (SEC, NAP-5); not shown: Fc (mouse IgG2a), C-terminal, kept

[2] = molecular target: T2, recombinant human AXL protein (Homo sapiens, UniProt P30530); test: SPR; Biacore-T200; recombinant AXL protein immobilised on CM5 chip by amine coupling (EDC/NHS); sdAbs injected at ten concentrations from 1.9 to 500 nM; 25°C; HBS (20 mM HEPES pH 7.4, 150 mM NaCl, 3.4 mM EDTA, 0.005% Tween 20); 10 µL/min; 1:1 binding model; settings: both partners purified
T2 construct: AXL receptor tyrosine kinase, human; recombinant protein R&D Systems #154-AL; also called hAXL; AXL - Homo sapiens; source: bought: R&D Systems (#154-AL)

[3] = molecular target: B1; test: as above; settings: both partners purified
[4] = molecular target: T3, recombinant mouse AXL protein (Mus musculus, UniProt Q00993); test: SPR; Biacore T200; recombinant AXL immobilised on CM5 chip by amine coupling; seven serial dilutions of sdAb flowed over; 25 °C; HBS (20 mM HEPES pH 7.4, 150 mM NaCl, 3.4 mM EDTA, 0.005% Tween 20); 1:1 binding model; settings: both partners purified
T3 construct: receptor tyrosine kinase AXL, mouse, recombinant protein from R&D Systems; also called recombinant mouse antigen; source: bought: R&D Systems

[5] = molecular target: T4, AXL on AXL-overexpressing murine C1498 AML cells (Mus musculus, UniProt Q00993); test: flow cytometry on cells; sdAb20 or sdAb20-Fc on AXL-expressing human and murine cancer cell lines, compared with the irrelevant control R3B23 or R3B23-Fc; read-out MFI; settings: one partner purified
T4 construct: receptor tyrosine kinase AXL overexpressed in murine C1498 cells by lentiviral transduction; also called AXL^high C1498; source: C1498 cells, lentivirally transduced and positively selected, on cells

[6] = molecular target: T5, recombinant human AXL protein (human, UniProt P30530); test: SPR; competition assay for blocking of hAXL and hGAS6; which partner was immobilised is not shown; settings: both partners purified
T5 construct: receptor tyrosine kinase AXL, human, recombinant protein from R&D Systems; also called hAXL; source: bought: R&D Systems
T5 sequence (P30530 26-451): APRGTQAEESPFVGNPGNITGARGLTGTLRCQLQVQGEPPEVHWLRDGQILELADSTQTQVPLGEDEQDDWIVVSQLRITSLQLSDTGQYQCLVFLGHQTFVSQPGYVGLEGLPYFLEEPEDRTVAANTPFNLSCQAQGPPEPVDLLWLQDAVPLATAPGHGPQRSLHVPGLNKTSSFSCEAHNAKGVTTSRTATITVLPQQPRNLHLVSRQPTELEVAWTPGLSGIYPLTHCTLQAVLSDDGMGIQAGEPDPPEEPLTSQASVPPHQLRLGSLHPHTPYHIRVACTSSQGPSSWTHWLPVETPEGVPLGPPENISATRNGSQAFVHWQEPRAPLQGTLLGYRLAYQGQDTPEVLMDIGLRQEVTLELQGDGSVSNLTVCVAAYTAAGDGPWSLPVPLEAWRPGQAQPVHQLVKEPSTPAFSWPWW

T2 sequence (P30530 26-451): as above

Row | binding result [2] | binding result [3] | Binder | also measured
1 |  |  | B1 | Kd [1]: 11.9 nM
2 | binds | binds | B2 | 
3 | binds | binds | B3 | 
4 | binds | binds | B4 | 
5 |  | binds | B5 | 
6 |  | binds | B6 | 
7 |  |  | B7 | binding result [4]: binds; binding result [5]: binds; IC50 [6]: 119 nM
